Here are results for one substance from patent US20160257710A1, “SELECTIVE INHIBITORS OF PROTEINASE 3” (INSERM (INSTITUT NATIONAL DE LA SANTÉ ET LA RECHERCHE …, priority 2013, published 2016).

Where no end group is shown, it is not given here. [ ]: non-standard residue; d: D form. AlaP = not defined here

The nature of series [1]: Stability of inhibitors in neutrophil lysate (preincubation before adding substrates). Format: in vitro ADME, human. The settings on record: one hour preincubation of neutrophil lysate-inhibitor mixture. From the text: (§1) We first studied the stability and the selectivity of compound 1, 2 and their biotinylated derivatives in a lysate of purified human neutrophils. […] Further, PR3 was selectively inactivated in the neutrophil lysate as shown by western blotting using biotinylated inhibitors.

For another series, the target named is T1, Elastase (Homo sapiens, UniProt P08246).
T1 sequence (P08246 30-267): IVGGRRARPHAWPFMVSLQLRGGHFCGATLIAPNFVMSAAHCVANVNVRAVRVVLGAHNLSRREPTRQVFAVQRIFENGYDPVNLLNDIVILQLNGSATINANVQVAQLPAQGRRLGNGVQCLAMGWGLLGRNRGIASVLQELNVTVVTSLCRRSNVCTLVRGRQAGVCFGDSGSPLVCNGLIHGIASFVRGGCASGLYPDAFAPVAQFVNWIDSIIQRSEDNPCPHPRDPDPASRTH
The series can be described thus: Protease inhibition assay, second order rate constant kobs/[I] (method of Tian and Tsou). In kind it is biochemical. As to conditions: n.s where no significant inhibition. Here is the method: (§2) The inactivation of proteases by substrate analog inhibitors in the presence of the substrate by competition for the enzyme-binding site, was measured by the method of Tian and Tsou (17). In this system, product formation in the presence of an irreversible inhibitor approaches an asymptote, as described by
(§3) log([P∞]−[P])=log [P∞]−0.43A[Y]t
(§4) where [P∞] is the concentration of product formed at time approaching infinity, [P] is the concentration of product at time t, [Y] is the inhibitor concentration, and A is the apparent inhibition rate constant in the presence of the substrate. A is given by
(§5) where k+0 is the rate constant for association of the inhibitor with the enzyme, K^−1 is the inverted Michaelis constant, and [S] the substrate concentration. The apparent inhibition rate constant A is the slope of a plot of log([P∞]−[P]) against t, to give the second-order rate constant of inhibition k+0

The next series concerns the target T2, CatG (Homo sapiens, UniProt P08311).
T2 sequence (P08311 21-244): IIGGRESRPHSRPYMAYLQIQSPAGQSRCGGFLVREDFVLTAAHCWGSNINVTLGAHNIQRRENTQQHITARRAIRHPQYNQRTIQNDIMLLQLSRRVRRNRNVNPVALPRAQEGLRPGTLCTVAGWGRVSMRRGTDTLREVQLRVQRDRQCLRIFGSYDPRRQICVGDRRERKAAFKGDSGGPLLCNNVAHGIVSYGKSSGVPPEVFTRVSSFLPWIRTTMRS
Put plainly: Inhibition of protease activity in crude lung secretions of patients (IPF, cystic fibrosis). In kind it is biochemical. The settings on record: 30 min incubation, IPF and CF samples.

The next series addresses T3, PR3 (Homo sapiens, UniProt P24158).
T3 construct: in a lysate of purified human neutrophils; endogenous in cells; host or cells: purified human neutrophils (lysate)
T3 sequence (P24158 28-248): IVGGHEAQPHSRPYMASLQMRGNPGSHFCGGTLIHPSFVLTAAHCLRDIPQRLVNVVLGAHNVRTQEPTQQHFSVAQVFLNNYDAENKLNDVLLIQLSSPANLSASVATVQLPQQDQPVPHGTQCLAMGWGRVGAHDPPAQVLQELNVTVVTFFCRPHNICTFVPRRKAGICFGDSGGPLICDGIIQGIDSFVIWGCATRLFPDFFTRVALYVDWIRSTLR
The series can be described thus: Inhibition of PR3 in a lysate of purified human neutrophils. In kind it is biochemical. The settings on record: conditions as with purified proteases.
Source text: as §1

A further series concerns the target T4, Proteinase 3 (Homo sapiens, UniProt P24158).
T4 sequence (P24158 28-248): T3 sequence (P24158 28-248)
Put plainly: Protease inhibition assay, second order rate constant kobs/[I] (method of Tian and Tsou). Format: biochemical. Here is the method: The compounds of the invention are advantageously selective inhibitors of PR3. […] As described under the Examples below (see PR3 inhibition assay), and as is generally known, efficacy of particular inhibitors against a target protease, for example, recombinant human PR3, is determined by combining the target with a substrate (for example Suc-AanV-SBzI), both in the absence of the inhibitor and in the present of different concentrations of such inhibitor to be tested. Typically, the efficacy of irreversible inhibitors are measured in terms of the second order rate constant of inhibition value (11) or kobs/l. Preferred inhibitors of the invention have typically a kobs/I of more than 10 M^−1s^−1, preferably more than 100 M^−1s^−1, and more preferably of more than […].
as §2, §3, §4, §5

In the next series the target is T5, HNE (Homo sapiens, UniProt P08246).
T5 sequence (P08246 30-267): T1 sequence (P08246 30-267)
The series can be described thus: Inhibition of protease activity in crude lung secretions of patients (IPF, cystic fibrosis). In kind it is biochemical. As to conditions: 30 min incubation, IPF and CF samples.

Take “Ac-Pro-Tyr-Asp-Ala^P(O—C6H4-4-Cl)2 (Ac-PYD[AlaP]; not fully specified (C-terminus); printed as Ac-Pro-Tyr-Asp-Ala^P(O—C6H4-4-Cl)2; reading uncertain; also: C-terminal Ala as phosphonate analogue (Ala^P)) [Compound 2]”: the “inhibition potential after preincubation in neutrophil lysate” value in series [1] is reported as “No loss of the inhibition potential”. Besides, in the series with Elastase, the “Elastase kobs/[I]” value is listed as “n.s”. Further, the “CatG activity in crude lung secretions” value with CatG is listed as “remained unchanged”. In addition, in the series with PR3, the “PR3 activity in neutrophil lysate” value is recorded as “totally inactivated”. Moreover, in the series with Proteinase 3, the “Proteinase 3 kobs/[I]” value worked out at 154 ± 3 M⁻¹ s⁻¹. The “kobs/I relative to that of compound 1” value in the series with Proteinase 3 (competition between PR3 substrate and inhibitor) is on record as “about 100 times”. For the same substance, the “HNE activity in crude lung secretions” value with HNE is “remained unchanged”.
